Reference: paper doi:10.1101/483925
Where two headings read alike, the source gives them in different places.

How the values were obtained:
Experiment in all cases: EMSA
[1] = target: T1, FD-C_T282E;14-3-3nu (GRF7);FT (Arabidopsis thaliana;Arabidopsis …, UniProt Q84JK2;Q96300;Q9SXZ2 203-285;1-265;1-175, T282E||)
[2] = target: FD-C_T282E;14-3-3nu (GRF7);TFL1 (Arabidopsis thaliana;Arabidopsis …, UniProt Q84JK2;Q96300;P93003 203-285;1-265;1-177, T282E||)
[3] = target: FD-C;14-3-3nu (GRF7);TFL1 (Arabidopsis thaliana;Arabidopsis …, UniProt Q84JK2;Q96300;P93003 203-285;1-265;1-177, ||)
FD-C;14-3-3nu (GRF7);TFL1, sequence (P93003 whole entry, one chain of several): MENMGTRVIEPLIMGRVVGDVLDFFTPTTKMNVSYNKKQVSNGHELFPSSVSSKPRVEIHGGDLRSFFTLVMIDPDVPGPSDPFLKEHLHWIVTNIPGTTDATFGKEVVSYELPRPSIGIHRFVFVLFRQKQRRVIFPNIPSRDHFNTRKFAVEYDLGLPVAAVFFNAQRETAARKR

FD full-length [4] = target: T2, FD full-length (Arabidopsis thaliana, UniProt Q84JK2 1-285)
T2 sequence: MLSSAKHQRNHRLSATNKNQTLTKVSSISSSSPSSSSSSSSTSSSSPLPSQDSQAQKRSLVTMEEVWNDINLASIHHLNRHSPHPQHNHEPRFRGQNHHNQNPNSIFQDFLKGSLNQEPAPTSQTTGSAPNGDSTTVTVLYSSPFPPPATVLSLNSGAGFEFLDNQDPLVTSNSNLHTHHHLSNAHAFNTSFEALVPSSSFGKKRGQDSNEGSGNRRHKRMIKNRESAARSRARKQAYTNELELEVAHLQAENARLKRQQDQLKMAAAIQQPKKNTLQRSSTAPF

FD T282E full-length = target: T3, FD T282E full-length (Arabidopsis thaliana, UniProt Q84JK2 1-285, T282E)
T3 sequence: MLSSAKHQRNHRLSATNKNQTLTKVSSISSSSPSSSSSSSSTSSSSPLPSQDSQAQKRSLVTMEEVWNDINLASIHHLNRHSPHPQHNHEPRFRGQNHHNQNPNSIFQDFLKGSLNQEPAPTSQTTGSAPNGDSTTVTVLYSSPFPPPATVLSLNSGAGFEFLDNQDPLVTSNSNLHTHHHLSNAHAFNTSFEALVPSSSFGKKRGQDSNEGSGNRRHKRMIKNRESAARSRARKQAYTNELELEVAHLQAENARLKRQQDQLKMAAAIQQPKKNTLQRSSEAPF

[5] = target: T4, FD-C_T282E;14-3-3nu (GRF7) (Arabidopsis thaliana;Arabidopsis …, UniProt Q84JK2;Q96300 203-285;1-265, T282E|)
T4 sequence 1: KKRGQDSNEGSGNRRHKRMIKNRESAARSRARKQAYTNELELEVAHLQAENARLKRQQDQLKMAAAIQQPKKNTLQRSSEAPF
T4 sequence 2: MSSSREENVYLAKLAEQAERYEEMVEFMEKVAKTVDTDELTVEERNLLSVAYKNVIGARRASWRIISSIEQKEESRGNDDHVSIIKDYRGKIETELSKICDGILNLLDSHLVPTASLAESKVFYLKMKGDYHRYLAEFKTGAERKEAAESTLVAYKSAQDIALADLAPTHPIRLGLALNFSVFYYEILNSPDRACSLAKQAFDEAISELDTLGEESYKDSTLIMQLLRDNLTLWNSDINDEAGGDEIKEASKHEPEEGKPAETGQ

FD-C_T282E = target: T5, FD-C_T282E (Arabidopsis thaliana, UniProt Q84JK2 203-285, T282E)
T5 sequence: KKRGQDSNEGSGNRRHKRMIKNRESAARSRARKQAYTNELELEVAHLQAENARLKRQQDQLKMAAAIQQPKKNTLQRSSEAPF

FD-C = target: T6, FD-C (Arabidopsis thaliana, UniProt Q84JK2 203-285)
T6 sequence: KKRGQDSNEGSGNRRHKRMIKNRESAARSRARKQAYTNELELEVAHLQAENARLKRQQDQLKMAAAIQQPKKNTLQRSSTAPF

FD full-length [6] = target: T2, FD full-length; remark: listed apart in the source
[7] = target: T1, FD-C_T282E;14-3-3nu (GRF7);FT; remark: listed apart in the source

FD-C_T282E;14-3-3nu (GRF7);TFL1, sequence (P93003 whole entry, stated change not applied, one chain of several): as the sequence (P93003 whole entry, one chain of several) above
T1 sequence (Q9SXZ2 whole entry, stated change not applied, one chain of several): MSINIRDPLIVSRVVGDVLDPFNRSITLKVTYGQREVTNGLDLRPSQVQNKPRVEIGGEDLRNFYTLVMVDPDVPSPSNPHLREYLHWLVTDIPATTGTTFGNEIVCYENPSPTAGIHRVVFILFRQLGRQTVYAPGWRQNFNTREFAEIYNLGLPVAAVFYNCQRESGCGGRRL

B1: SEP3 promoter G-box probe (dsDNA)
DNA 1: CGAGATGTCGACACGTGTCCAAACTCAT
DNA 2: ATGAGTTTGGACACGTGTCGACATCTCG
**Q.** Does B1 bind [1]?
**A.** binds

**Q.** Does B1 bind [2]?
**A.** binds

**Q.** Does B1 bind [3]?
**A.** binds

**Q.** Does B1 bind (FD full-length [4])?
**A.** binds

**Q.** Does B1 bind (FD T282E full-length)?
**A.** binds

**Q.** Does B1 bind [5]?
**A.** binds

**Q.** Does B1 bind (FD-C_T282E)?
**A.** binds

B2: SEP3 G-box CG to GC (CAGCTG) (dsDNA)
DNA 1: CGAGATGTCGACAGCTGTCCAAACTCAT
DNA 2: ATGAGTTTGGACAGCTGTCGACATCTCG
**Q.** Does B2 bind (FD-C)?
**A.** binds

**Q.** Does B2 bind (FD full-length [6])?
**A.** binds

B3: AP1 promoter site 2 (dsDNA)
DNA 1: TACCAATGAGAAGTCGACACGCAAATCCTA
DNA 2: TAGGATTTGCGTGTCGACTTCTCATTGGTA
**Q.** Which results are given for B3?
**A.** binding result [7]: binds; binding result [2]: binds; binding result [5]: binds

B4: SEP3 G-box CG to TA (CATATG) (dsDNA)
DNA 1: CGAGATGTCGACATATGTCCAAACTCAT
DNA 2: ATGAGTTTGGACATATGTCGACATCTCG
**Q.** Which results are given for B4?
**A.** binding result (FD-C): no binding; binding result (FD full-length [6]): no binding

B5: SEP3 G-box to C-box (GACGTC) (dsDNA)
DNA 1: CGAGATGTCGAGACGTCTCCAAACTCAT
DNA 2: ATGAGTTTGGAGACGTCTCGACATCTCG
**Q.** Does B5 bind (FD-C)?
**A.** no binding

**Q.** Does B5 bind (FD full-length [6])?
**A.** no binding
